This is an account of results in patent US6787341B2, “Pharmacological targeting of bacterial DNA ligase for treatment and prevention of bacterial infections” (priority 2001, dated 2004).

In this data set the test system is NC(=O)c1ccc[n+]([C@@H]2O[C@H](COP(=O)([O-])OP(=O)(O)OC[C@H]3O[C@@H](n4cnc5c(N)ncnc54)[C@H](O)[C@@H]3O)[C@@H](O)[C@H]2O)c1. In words: Nucleotide cofactor specificity of AmEPV ligase in nick ligation. The class given is biochemical, Amsacta moorei entomopoxvirus. Conditions: other: from double-reciprocal plot, sub-saturating enzyme; pH 7.5; 22.0 °C. How it is done: Reaction mixtures (20 μl) containing 50 mM Tris-HCl (pH 7.5), 10 mM (NH4)2SO4, 5 mM DTT, 5 mM MgCl2, 1 pmol of ^32P-labeled nicked DNA, 32 ng of AmEPV ligase, and 50 μM of the indicated nucleotide were incubated for 30 min at 22° C. A control reaction contained no added nucleotide cofactor (none). The reaction products were resolved by polyacrylamide gel electrophoresis. An autoradiogram of the gel is shown.
A low level of nick ligation could be detected in the absence of added nucleotide (FIG. 6). Cofactor-independent ligation was attributed to pre-adenylated ligase in the enzyme preparation. […] Inclusion of NAD^+ in the reaction mixture stimulated nick ligation such that ˜90% of the input substrate molecules were sealed (FIG. 6). […] Indeed, none of the standard rNTPs or dNTPs were able to satisfy the requirement of AmEPV ligase for a high energy cofactor (FIG. 6). […] A Km of 9 μM NAD^+ was calculated from a double-reciprocal plot of the data.

Consider “AmEPV ligase (Betaentomopoxvirus amoorei)”, for which the Km is 9 µM.
